Test results published in patent publication US20100093076A1, “SOLUBLE IL-27 RECEPTOR” (priority 2006, published 2010).
Where “and” joins values, the source holds several entries; their conditions need not be identical. Identical values can stand only once.

Columns and labels:
P815 cells = assay: CTL-specific lysis assay with splenocytes of GVHD mice; format: cell-based, mouse; details: splenocytes of treated GVHD mice against calcein-labeled P815 cells; versus PBS group
Procedure: Efficacy of IL-27 antagonists was assayed in a mouse model of acute graft-vs-host disease (Durie et al., J. Clin. Invest. 94:1333-1338, 1994). Parental mice (C57BL/6; n=12) were euthanized, and their spleens were collected. The pooled spleens were smashed using two glass slides to dissociate splenic cells. Lysis buffer was added to the splenocyte suspension to remove red blood cells. The cells were washed in RPMI 1640 (10% FBS) medium and resuspended in an appropriate amount of PBS to make a cell concentration of 300 million cells/ml. Protein treatments were administered by intraperitoneal injection every other day beginning on day-1 and continuing until day 15. Dexamethasone (DEX) was administered by injection daily on days 0 through 6. […] Mice were monitored 3 times a week for changes in body weight and any signs of moribundity. […] Spleens were collected, and a CTL-specific lysis assay using P815 cells was performed as a quantitative measurement of acute GVHD. […]
For CTL assay, P815 cells (a tumor cell line from mice with the same MHC class as DBA2) were labeled with calcein, then splenocytes from each experimental animal were added to the calcein-labeled P815 cells at effector (splenocytes):target (P815) ratios of 100:1, 33:1, and 10:1. Four hours after incubation at 37° C., supernatants were collected and fluorescence was measured (485 nm/535 nm).

single-chain mouse IL-27 = molecular target: T1, single-chain mouse IL-27 (Mus musculus, UniProt O35228+Q8K3I6); assay: IL-27 inhibition of IL-2 production neutralized by IL-27RA Fc (third set of experiments); format: cell-based; details: + IL-27 (10 ng/ml)
T1 sequence (O35228+Q8K3I6 with tags, fused parts or gaps): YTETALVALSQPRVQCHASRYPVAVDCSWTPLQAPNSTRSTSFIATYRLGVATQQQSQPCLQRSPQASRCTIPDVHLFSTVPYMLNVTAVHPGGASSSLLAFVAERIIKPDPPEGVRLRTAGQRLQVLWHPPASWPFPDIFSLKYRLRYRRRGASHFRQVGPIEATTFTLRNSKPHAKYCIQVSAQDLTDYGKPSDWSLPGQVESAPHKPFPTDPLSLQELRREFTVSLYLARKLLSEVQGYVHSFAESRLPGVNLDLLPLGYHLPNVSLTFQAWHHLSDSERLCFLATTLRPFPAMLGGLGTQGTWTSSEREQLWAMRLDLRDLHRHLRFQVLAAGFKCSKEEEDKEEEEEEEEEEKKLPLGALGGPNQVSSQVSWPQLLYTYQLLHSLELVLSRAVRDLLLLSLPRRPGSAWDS
Procedure: Naïve mouse CD4 T-cells were isolated as described above. For testing of the neutralizing mAbs, the naïve CD4 T cells were preincubated for 30 minutes at 37 degrees C. with graded concentrations (60, 30, 15, 7.5, 3.75, 1.875.micro.g/ml) of either neutralizing rat anti-mouse IL27RA mAb (each mAb tested separately), rat IgG1 isotype control mAb, rat IgG2a isotype control mAb, or no mAb. […] The CD4 T cells (4×10^5/well) were then transferred to anti-CD3 coated tissue culture plates. Single-chain mouse IL-27 (10 ng/ml) was then added to the plates. Duplicate plates were set up for all experimental conditions. The plates were then cultured at 37 degrees for up to 72 hours.
For testing of the soluble receptor, single-chain mouse IL-27 (10 ng/ml) was preincubated for 30 minutes at 37 degrees C. with either IL27RAm(mFc1) (10.0 and 5.0.micro.g/ml), IL27RA-Fc5, mouse Fc1 protein (10.0 and 5.0.micro.g/ml), human Fc5 protein (10.0 and 5.0.micro.g/ml), or no recombinant protein in wells of the anti-CD3 coated plates. 4×10^5 CD4^+ CD62L high cells were added to the wells. Duplicate plates were set up for all experimental conditions. The plates were then cultured at 37 degrees for up to 72 hours. Cell supernatants were collected from one set of plates at 48 hours and from the duplicate set of plates at 72 hours. The supernatants were stored frozen at −80° C.

IL-2 concentration (single-chain mouse IL-27; 48 hr, protein conc. 5 (μg/ml; Fc controls in molar equiv.)): 5784.11 pg/mL | IL-2 concentration (single-chain mouse IL-27; 48 hr, protein conc. 10 (μg/ml; Fc controls in molar equiv.), listed as hIL-27RA): 5774.94 pg/mL and 5333.6 pg/mL | IL-2 concentration (single-chain mouse IL-27; 72 hr, protein conc. 5 (μg/ml; Fc controls in molar equiv.)): 1869.62 pg/mL | IL-2 concentration (single-chain mouse IL-27; 72 hr, protein conc. 10 (μg/ml; Fc controls in molar equiv.), listed as hIL-27RA): 28607.63 pg/mL and 17481.17 pg/mL
Substance: human IL-27RA-Fc5: Extracellular domain of human IL27RA (amino acids 1 to 512 of SEQ ID NO:3) fused to Fc5, effector minus human gamma1 Fc; SEQ ID NO:16
CTL activity (P815 cells): reduced CTL activity compared to the PBS group
